T1: cynomolgus SIRPα extracellular domain + His-tag (EGM_02252) (cynomolgus monkey)
T1 construct: also called CySIRPα EGM_02252; cynoSIRPα
T1 chain: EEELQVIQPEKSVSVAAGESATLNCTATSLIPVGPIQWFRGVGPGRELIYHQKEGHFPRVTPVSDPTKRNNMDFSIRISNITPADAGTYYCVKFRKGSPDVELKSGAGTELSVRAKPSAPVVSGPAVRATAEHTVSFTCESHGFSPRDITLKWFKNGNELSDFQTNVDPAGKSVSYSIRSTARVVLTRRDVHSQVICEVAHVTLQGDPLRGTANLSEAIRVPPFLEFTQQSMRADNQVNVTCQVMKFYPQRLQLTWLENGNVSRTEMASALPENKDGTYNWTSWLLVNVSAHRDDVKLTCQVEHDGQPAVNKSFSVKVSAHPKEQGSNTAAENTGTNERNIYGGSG

T2: cynomolgus SIRPα extracellular domain + His-tag (XP_015313155) (cynomolgus monkey)
T2 construct: also called CySIRPα XP_015313155; cynoSIRPα
T2 chain: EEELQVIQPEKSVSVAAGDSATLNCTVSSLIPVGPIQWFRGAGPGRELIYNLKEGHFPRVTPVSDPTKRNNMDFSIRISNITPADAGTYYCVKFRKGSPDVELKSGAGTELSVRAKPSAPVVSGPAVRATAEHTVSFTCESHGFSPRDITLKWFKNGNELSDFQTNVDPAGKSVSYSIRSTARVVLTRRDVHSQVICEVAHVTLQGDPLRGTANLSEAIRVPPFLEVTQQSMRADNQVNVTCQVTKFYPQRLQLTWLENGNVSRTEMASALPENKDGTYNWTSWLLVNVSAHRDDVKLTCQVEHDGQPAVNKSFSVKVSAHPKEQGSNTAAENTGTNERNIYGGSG

T3: cynomolgus SIRPβ1 extracellular domain + His-tag (XP_005568598) (cynomolgus monkey)
T3 construct: also called Cyno SIRPβ1; cynoSIRPβ1
T3 chain: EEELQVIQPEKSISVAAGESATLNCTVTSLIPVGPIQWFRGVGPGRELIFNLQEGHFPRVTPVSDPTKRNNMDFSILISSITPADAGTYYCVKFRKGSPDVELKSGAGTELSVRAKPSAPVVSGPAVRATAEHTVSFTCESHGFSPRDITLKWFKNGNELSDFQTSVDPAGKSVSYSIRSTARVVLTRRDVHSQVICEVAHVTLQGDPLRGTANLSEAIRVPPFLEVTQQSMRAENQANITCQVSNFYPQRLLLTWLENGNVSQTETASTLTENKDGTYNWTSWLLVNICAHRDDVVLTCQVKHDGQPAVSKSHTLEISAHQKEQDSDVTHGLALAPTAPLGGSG

T4: cynomolgus SIRPβ1v3 extracellular domain + His-tag (XP_005568593) (cynomolgus monkey)
T4 construct: also called Cyno SIRPβ1v3; cynoSIRPβ1v3
T4 chain: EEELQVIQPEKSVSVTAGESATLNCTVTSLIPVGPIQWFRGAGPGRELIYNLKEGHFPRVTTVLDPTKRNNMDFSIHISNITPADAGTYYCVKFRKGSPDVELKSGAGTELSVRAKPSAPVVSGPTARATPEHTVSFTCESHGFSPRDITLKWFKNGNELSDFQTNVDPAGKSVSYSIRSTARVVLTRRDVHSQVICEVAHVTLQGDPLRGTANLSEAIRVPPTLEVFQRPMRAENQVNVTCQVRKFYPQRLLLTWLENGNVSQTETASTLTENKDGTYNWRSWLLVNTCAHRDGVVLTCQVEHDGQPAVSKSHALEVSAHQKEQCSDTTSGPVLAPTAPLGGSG

T5: cynomolgus SIRPγ extracellular domain + His-tag (XP_005568591) (cynomolgus monkey, UniProt Q9P1W8 29-359 (human entry))
T5 construct: also called Cyno SIRPγ; cynoSIRPγ
T5 chain: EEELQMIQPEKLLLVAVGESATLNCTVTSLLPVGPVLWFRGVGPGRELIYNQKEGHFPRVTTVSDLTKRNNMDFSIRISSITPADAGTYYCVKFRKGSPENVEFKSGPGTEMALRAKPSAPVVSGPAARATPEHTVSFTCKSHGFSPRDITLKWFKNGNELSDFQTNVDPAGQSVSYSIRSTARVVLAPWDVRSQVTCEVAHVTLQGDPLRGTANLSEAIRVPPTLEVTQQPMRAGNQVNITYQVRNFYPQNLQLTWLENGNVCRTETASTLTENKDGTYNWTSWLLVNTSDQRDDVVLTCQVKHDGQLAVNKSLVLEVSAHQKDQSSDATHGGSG


Assays:
Assay in all cases: SPR, Ab captured, ECD-His analyte
[1] = target: T1, cynomolgus SIRPα extracellular domain + …
Protocol: (§1) The binding affinity of anti-SIRPα antibodies to the various SIRPα analytes is determined by surface plasmon resonance (SPR) using a ProteOn XPR36 (Bio-Rad). The running buffer for this experiment and all dilutions (except where stated) are done in 1×HBS-EP+. […] The sensorchip is deactivated with 1M ethanolamine HCl for 420 sec at a flowrate of 10 μl/min.
(§2) The analyte is injected over the captured antibody for 300 sec at a flowrate of 30 μl/min. The dissociation is done for 600 sec. Two-fold serial dilutions of each SIRP protein (Extracellular Domain+His-Tag) are injected as analyte with the highest concentrations indicated in table 36 below.

[2] = target: T2, cynomolgus SIRPα extracellular domain + …
Protocol: as §1, §2

[3] = target: T3, cynomolgus SIRPβ1 extracellular domain …
Protocol: as §1, §2

[4] = target: T4, cynomolgus SIRPβ1v3 extracellular …
Protocol: as §1, §2

[5] = target: T5, cynomolgus SIRPγ extracellular domain + …
Protocol: as §1, §2

[6] = target: T6, human SIRPβ1 extracellular domain + His-tag (NP_006056.2) (human, UniProt O00241 30-371)
T6 construct: also called hSIRPβ1; HuSIRPβ1
Protocol: as §1, §2

[7] = target: T7, human SIRPβL/SIRPβ1v3 extracellular domain + His-tag (NP_001129316.1) (human, UniProt Q5TFQ8 30-371)
T7 construct: also called hSIRPβ1v3; HuSIRPβ1v3
Protocol: as §1, §2

[8] = target: T8, human SIRPγ extracellular domain + His-tag (NP_061026.2) (human, UniProt Q9P1W8 29-360)
T8 construct: also called hSIRPγ; HuSIRPγ
Protocol: as §1, §2

T6 sequence (O00241 other isoform, or with tags, fused parts or gaps): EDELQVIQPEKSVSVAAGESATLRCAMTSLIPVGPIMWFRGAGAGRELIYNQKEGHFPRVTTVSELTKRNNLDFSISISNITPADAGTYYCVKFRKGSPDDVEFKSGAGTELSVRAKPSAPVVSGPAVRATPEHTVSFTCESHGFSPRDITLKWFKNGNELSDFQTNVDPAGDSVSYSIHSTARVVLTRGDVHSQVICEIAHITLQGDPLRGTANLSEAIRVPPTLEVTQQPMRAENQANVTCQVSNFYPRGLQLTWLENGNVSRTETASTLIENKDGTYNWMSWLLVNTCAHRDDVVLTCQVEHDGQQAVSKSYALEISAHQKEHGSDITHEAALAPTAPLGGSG
T7 sequence (Q5TFQ8 other isoform, or with tags, fused parts or gaps): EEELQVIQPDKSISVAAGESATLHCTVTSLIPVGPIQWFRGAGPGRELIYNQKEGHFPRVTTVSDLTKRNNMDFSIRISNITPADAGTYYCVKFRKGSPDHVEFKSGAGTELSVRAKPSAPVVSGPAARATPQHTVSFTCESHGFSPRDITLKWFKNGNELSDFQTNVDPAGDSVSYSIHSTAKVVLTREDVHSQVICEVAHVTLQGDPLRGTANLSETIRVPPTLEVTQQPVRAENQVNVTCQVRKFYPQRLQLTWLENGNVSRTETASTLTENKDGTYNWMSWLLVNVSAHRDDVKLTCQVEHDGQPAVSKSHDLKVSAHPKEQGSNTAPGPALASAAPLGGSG
T8 sequence (Q9P1W8 29-360): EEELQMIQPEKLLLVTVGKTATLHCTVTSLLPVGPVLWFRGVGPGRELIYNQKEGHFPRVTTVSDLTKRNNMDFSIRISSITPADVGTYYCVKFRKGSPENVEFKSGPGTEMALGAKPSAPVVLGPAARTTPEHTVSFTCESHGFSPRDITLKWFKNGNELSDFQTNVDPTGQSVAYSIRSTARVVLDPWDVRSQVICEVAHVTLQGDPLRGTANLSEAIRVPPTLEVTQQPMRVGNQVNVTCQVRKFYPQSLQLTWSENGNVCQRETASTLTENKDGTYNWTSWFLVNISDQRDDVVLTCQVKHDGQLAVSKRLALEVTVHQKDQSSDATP

| Binder | Kd [1] | Kd [2] | binding result [3] | Kd [4] | binding result [5] | Kd [6] | binding result [7] | binding result [8] |
| --- | --- | --- | --- | --- | --- | --- | --- | --- |
| Antibody A13 (antibody, human IgG1, kappa, L234A L235A, V domains shown) VH: EVQLVESGGGLVQPGGSLRLSCAASGFTLSSYDMHWVRQAPGKGLEWVSAIGTAGDTYYTGSVKGRFTISRENAKNSLYLQMNSLRAADTAVYYCVRGGVWDDAFDIWGQGTMVTVSS VL: DIQMTQSPSSLSASVGDRVTITCRASQDINNYLAWFQQKPGKAPKSLIYTASSLHSGVPSKFSGSGSGTDFTLTISSLQPEDFATYYCQQYVSYPYTFGQGTKLEIKR | 226 nM | 160 nM | no binding (tested: 1000 nM) | 238 nM | no binding (tested: 1000 nM) | 61 nM | no binding (tested: 100 nM) | no binding (tested: 1000 nM) |
| Antibody A5 (antibody, human IgG1, kappa, L234A L235A, V domains shown) VH: EVQLVESGGGLVQPGGSLRLSCAASGFTLSSYDMHWVRQAPGKGLEWVSAIGTAGDTYYTGSVKGRFTISRENAKNSLYLQMNSLRASDTAVYYCVRGGVWDDAFDIWGQGTMVTVSS VL: DIQMTQSPSSLSASVGDRVTITCRASQGINNYAAWFQQKPGKAPKSLIYTASSLHSGVPSKFSGSGSGTDFTLTISSLQPEDFATYYCQQYVSYPYTFGQGTKLEIKR | 533 nM | 347 nM | no binding (tested: 1000 nM) | 465 nM | no binding (tested: 1000 nM) | 64.2 nM | no binding (tested: 100 nM) | no binding (tested: 1000 nM) |
| Antibody A16 (antibody, human IgG1, kappa, L234A L235A, V domains shown) VH: EVQLVESGGGLVQPGGSLRLSCAASGFTLSSYDMHWVRQAPGKGLEWVSAIGTAGDTYYTGSVKGRFTISRENAKNSLYLQMNSLRAGDTAVYYCVRGGVWDDAFDIWGQGTMVTVSS VL: DIQMTQSPSSLSASVGDRVTITCRASQDINNYLAWFQQKPGKAPKSLIYTASSLHSGVPSKFSGSGSGTDFTLTISSLQPEDFATYYCQQYVSYPYTFGQGTKLEIKR | 225 nM | 151 nM | no binding (tested: 1000 nM) | 225 nM | no binding (tested: 1000 nM) | 62.7 nM | no binding (tested: 100 nM) | no binding (tested: 1000 nM) |

The remaining lines, values ahead:

| Kd [1] | Kd [2] | binding result [3] | Kd [4] | binding result [5] | Kd [6] | binding result [7] | binding result [8] | Binder |
| --- | --- | --- | --- | --- | --- | --- | --- | --- |
| 223 nM | 154 nM | no binding (tested: 1000 nM) | 232 nM | no binding (tested: 1000 nM) | 58.8 nM | no binding (tested: 100 nM) | no binding (tested: 1000 nM) | Antibody A15 (antibody, human IgG1, kappa, L234A L235A, V domains shown) VH: EVQLVESGGGLVQPGGSLRLSCAASGFTLSSYDMHWVRQAPGKGLEWVSAIGTAGDTYYTGSVKGRFTISRENAKNSLYLQMNSLRAEDTAVYYCVRGGVWDDAFDIWGQGTMVTVSS VL: DIQMTQSPSSLSASVGDRVTITCRASQDINNYLAWFQQKPGKAPKSLIYTASSLHSGVPSKFSGSGSGTDFTLTISSLQPEDFATYYCQQYVSYPYTFGQGTKLEIKR |
| 222 nM | 153 nM | no binding (tested: 1000 nM) | 235 nM | no binding (tested: 1000 nM) | 58.3 nM | no binding (tested: 100 nM) | no binding (tested: 1000 nM) | Antibody A14 (antibody, human IgG1, kappa, L234A L235A, V domains shown) VH: EVQLVESGGGLVQPGGSLRLSCAASGFTLSSYDMHWVRQAPGKGLEWVSAIGTAGDTYYTGSVKGRFTISRENAKNSLYLQMNSLRASDTAVYYCVRGGVWDDAFDIWGQGTMVTVSS VL: DIQMTQSPSSLSASVGDRVTITCRASQDINNYLAWFQQKPGKAPKSLIYTASSLHSGVPSKFSGSGSGTDFTLTISSLQPEDFATYYCQQYVSYPYTFGQGTKLEIKR |

— patent publication US20230012273A1 (Boehringer Ingelheim, published 2023)
